Assay results taken from publication PMC5123051, “Neutralization mechanism of a highly potent antibody against Zika virus” (Nature Communications, 2016).

Molecular target: T1, Zika virus envelope (E) protein on purified ZIKV particles, strain H/PF/2013 (Zika virus H/PF/2013 (French Polynesia …, strain))
T1 construct: envelope protein E of Zika virus strain H/PF/2013, cut product of the viral polyprotein, on the virus surface; Stood in the assay as whole virus particles: 180 copies of E in icosahedral symmetry, as dimers, three dimers forming a raft, 30 rafts; M protein and the lipid membrane are also present; E carries a glycan on the '150 glycan loop'; also called molecules A, B and C; source: Aedes …
Assay: cryo-EM structure; Fab C10 mixed with purified ZIKV at 1.5 Fab to every E protein, 30 min at 37 °C then ~1 h on ice; pH8.0 (NTE buffer); 4.0 Å
Settings: both partners purified

B1: Fab C10 (Fab, V domains shown)
VH: EVQLVESGAEVKKPGASVKVSCKASGYTFTSYAMHWVRQAPGQRLEWMGWINAGNGNTKYSQKFQDRVTITRDTSASTAYMELSSLRSEDTAIYYCARDKVDDYGDYWFPTLWYFDYWGQGTLVTVS
VL: ALTQPASVSGSPGQSITISCTGTSSDVGGFNYVSWFQQHPGKAPKLMLYDVTSRPSGVSSRFSGSKSGNTASLTISGLQAEDEADYYCSSHTSRGTWVFGGGTKLTVL
notes: heavy chain variable region of C10; human IgG1 heavy chain constant region, the part that stays in the Fab after papain digestion; light chain variable region of C10; human lambda 2 light chain constant region; Fab cut from the IgG with papain; also called Fab fragment of HMAb C10; Fab regions of C10 IgG; source: C10 IgG from HEK293T cells, transiently co-transfected, protein A purified; Fab by …
- stoichiometry N: 180 copies of Fab per virus particle
